# According to patent US20230082287A1, “METHODS OF TREATING AN INFLAMMATORY OR OBSTRUCTIVE AIRWAY DISEASE USING ANTI-TSLP ANTIBODY” (Novartis AG, priority 2020, published 2023):
# Read-outs that look alike come from different tables or passages of the source.
# B1: CSJ117: potent neutralizing antibody fragment (Fab) directed against human TSLP; heavy chain SEQ ID NO: 9, light chain SEQ ID NO: 19 (antibody)
# heavy: EVQLVESGGGLVKPGGSLRLSCAASGFTFSDYWMHWVRQAPGKGLEWVGHIKSKTDAGTTDYAAPVKGRFTISRDDSKNTLYLQMNSLKTEDTAVYYCAREIYYYAFDSWGQGTLVTVSSASTKGPSVFPLAPSSKSTSGGTAALGCLVKDYFPEPVTVSWNSGALTSGVHTFPAVLQSSGLYSLSSVVTVPSSSLGTQTYICNVNHKPSNTKVDKRVEPKSC
# light: SYELTQPLSVSVALGQTARITCSGDNIGSKYVHWYQQKPGQAPVLVIYGDNERPSGIPERFSGSNSGNTATLTISRAQAGDEADYYCQAADWVDFYVFGGGTKLTVLGQPKAAPSVTLFPPSSEELQANKATLVCLISDFYPGAVTVAWKADSSPVKAGVETTTPSKQSNNKYAASSYLSLTPEQWKSHRSYSCQVTHEGSTVEKTVAPTECS
# What was measured:
# [1] = First-in-human single ascending dose study: safety and tolerability; assay type: in vivo
# Protocol: The safety, tolerability and PK of CSJ117 have been evaluated in healthy volunteers (HV) in a single ascending dose (SAD) study.
# A first-in-human, randomized, subject-blind, placebo controlled, single ascending dose study was conducted to assess the safety, tolerability and pharmacokinetics of CSJ117 in adult healthy subjects. Single dose of 1 mg (Cohort 1), 3 mg (Cohort 2), 9 mg (Cohort 3), 32 mg (Cohort 4), 64 mg (Cohort 5), 160 mg (Cohort 6) or placebo was administered via inhalation.
# [2] = Phase 2a bronchoprovocation study: safety and tolerability; assay type: in vivo; details: 12 weeks
# From the text: (§1) This was a non-confirmatory, randomized, subject- and investigator-blinded, placebo-controlled, parallel-design, multi-center bronchoprovocation study. […] Two sequential dose cohorts were enrolled for this study. • Cohort 1: 24 subjects (12 active and 12 placebo) • Cohort 2a: 4 subjects (3 active and 1 placebo)
# No adverse events (AE) imbalance observed across treatment groups. […] No subject discontinued study drug due to an adverse event. The most frequent treatment-emergent adverse events were headache, nasopharyngitis, and oropharyngeal pain.
# [3] = GLP monkey toxicity study: dose and exposure multiples versus human 4 mg QD dose; assay type: in vivo, cynomolgus monkey
# From the text: The rationale for a 12-week study treatment duration was based on the following: (i) the 12-week treatment period was warranted from a safety perspective given the data from the 13-week cynomolgus monkey toxicity study; (ii) the 12-week dosing period was anticipated to provide greater information on the PK profile of CSJ117 in humans (as compared to a shorter study duration); (iii) completing 12-weeks of dosing prior to dose escalation(s) provided greater safety information, as systemic exposure is expected to have achieved steady state; (iv) 12 weeks was expected to be sufficient duration to allow assessment of PD effects in the AIC.
# Lung weight scaling was selected for the HED calculation due to the CSJ117-related changes in the respiratory tract and the lack of significant systemic side effects in the monkey toxicity studies. • Exposure multiples were also calculated to compare the observed systemic exposure in monkeys with the systemic exposure in humans, based on the observed single dose PK data in healthy subjects, assuming either linear or nonlinear PK. For multiple daily inhalations in humans, assuming linear and time-independent PK (i.e., a 2.4 fold accumulation ratio), the estimated human systemic exposure at steady state for a 4 mg dose was 948-fold below the monkey Day 91 systemic exposure.
# [4] = system: allergen inhalation challenge (AIC) in subjects with mild atopic asthma; assay: Phase 2a allergen bronchoprovocation study (LAR, EAR, FeNO); assay type: in vivo, human
# From the text: CSJ117, as an inhaled Fab targeting TSLP, offers the potential to be an efficacious therapy for severe asthma with a favorable safety and tolerability profile. This study used inhaled allergen bronchoprovocation testing as a model for allergic asthma, in an effort to predict CSJ117 efficacy in the eventual severe asthma patient population. As a model for allergic asthma, standardized inhaled allergen bronchoprovocation testing can induce the acute and some of the more chronic features of asthma in human subjects with mild atopic asthma. In sensitized subjects, inhalation of a relevant allergen results in acute bronchoconstriction (the early asthma response or EAR [EAR defined as ≥20% fall in forced expiratory volume in 1 second (FEV1) between 0-2 hours after inhalation of allergen] Boulet et al 2007). In approximately 50% of subjects the EAR is followed by an inflammatory airway response with prolonged airway narrowing (the late asthma response or LAR [LAR defined as ≥15% fall in FEV1 between 3-7 hours after inhalation of allergen] Boulet et al 2007). In general, inhibition of the LAR in the allergen bronchoprovocation model is a good predictor of clinical efficacy in the moderate to severe asthma patient population (Diamant et al 2013). The objectives of this allergen bronchoprovocation study were to characterize the safety, tolerability, pharmacokinetics (PK) and pharmacodynamic (PD) effects of CSJ117 in subjects with mild atopic asthma over 12 weeks of treatment to determine if further clinical development is warranted.
# as §1
# There was only one active dose used in the study, i.e. CSJ117 4 mg used for both Cohort 1 & 2a. Placebo subjects from all cohorts were pooled for analyses.
# For all cohorts, the study consisted of a 35-day screening period, a baseline evaluation, a 12-week treatment period (consisting of a single dose on Day 1, safety evaluation Days 1-3 and commencement of QD dosing on Day 3) and a 30-day follow up period (FIG. 3).
# On Day 1 (Visit 101) of the treatment period, after completion of all pre-dose assessments, subjects were randomized and received a single dose of CSJ117 or placebo in the morning and then underwent safety assessments, observation and PK sampling in-clinic for a period of 8 hours post-dose. On Day 2 (Visit 102), the subject returned to the clinic for evaluation and PK sampling. On Day 3 (Visit 103), the subjects returned to clinic for evaluation. On Day 3 (Visit 103) subjects took an inhaled dose of CSJ117 or placebo in the clinic. For the remaining duration of the 12-week treatment period, subjects took daily inhaled doses of CSJ117 or placebo, in the clinic on study visit days or at home. […]
# Dog, cat, horse, mouse, cattle, rat and bird allergens were included in the challenge. Table 6 and Table 7 show the fall in FEV1 values and percentages, respectively, after the allergen challenges. […]
# The early asthmatic response (EAR) after an allergen inhalation challenge on Day 42 and Day 84 was assessed by measuring the (1) area under the curve (AUC) time-adjusted percent fall in the FEV1, (2) maximum percent fall in the FEV1, and (3) minimum absolute FEV1 between 0 and 2 hours after […].
# [5] = Healthy Japanese SAD study: serum CSJ117 pharmacokinetics; details: cross-study comparison at 9 and 32 mg
# Protocol: (§2) In addition, the PK analysis set for the healthy Japanese SAD Study included 18 subjects, six subjects per single inhaled dose of 9, 16 and 32 mg administered via Concept 1 device.
# [6] = system: late asthmatic response (LAR); assay: Hill equation simulation of CSJ117 dose-response (LAR efficacy); design: species or system human; details: for Predicted efficacy: range over Emax scenarios; for ED50: Dose = 4 mg, E = 47.6%, Hill slope n = 1
# Protocol: Simulation of Dose-Response Curves of CSJ117 from Doses Ranging from 0.5 to 8 mg:
# % Efficacy of CSJ117 in PoC study compared to placebo was calculated using following formula: % E=[(B−A)/B]×100, where, E=Efficacy; A and B are LAR measured by max fall % FEV1 value in treated and placebo groups, respectively.
# Maximum efficacy (Emax) of CSJ117 is unknown at this time and three potential values of Emax are possible:
# From Emax and ED50 in each scenario above, a dose-response curve was generated using Hill equation to assess range of efficacy values resulting from 0.5 to 8 mg once daily dose of CSJ117 (FIGS. 6 and 7). Efficacy due to 0.5 mg and 8 mg once daily dose of CSJ117 is predicted to range from 10-35% and 65-88% of maximum effect, respectively. As visible in plots of FIGS. 6 and 7, the planned dose range of 0.5, 1, 2, 4, and 8 mg o.d. of CSJ117 during Ph2B (Example 4) is expected to adequately describe the dose-response for CSJ117.
# [7] = in vivo
# Protocol: Single dose of 1 mg (Cohort 1), 3 mg (Cohort 2), 9 mg (Cohort 3), 32 mg (Cohort 4), 64 mg (Cohort 5), 160 mg (Cohort 6) or placebo was administered via inhalation. First-in-human study was conducted in 51 healthy volunteers (HVs), of which 37 subjects were exposed to CSJ117 and 12 to placebo.
# The PK analysis set for the FIH SAD Study included 37 subjects. PK samples were collected up to 28 days post dose.
# [8] = human, in vivo, inhaled or intranasal, 32 mg
# Protocol: as §2
# [9] = Day 42, 4 mg QD inhaled (N = 12)
# [10] = Day 84, 4 mg QD inhaled (N = 13)
# [11] = human, inhaled or intranasal, 1 mg
# [12] = human, inhaled or intranasal, 3 mg
# [13] = human, inhaled or intranasal, 9 mg
# [14] = human, inhaled or intranasal, 32 mg
# [15] = human, inhaled or intranasal, 64 mg
# [16] = human, inhaled or intranasal, 160 mg
molecule,measurement,setting,value
B1,Subjects with adverse events (AEs),"[1]; 7/37 CSJ117 subjects, single inhaled doses 1-160 mg",19 % of subjects
same,Deaths or serious adverse events,[1]; FIH study,no deaths or serious adverse events
same,Severe or serious adverse events,[2]; 4 mg QD,No subject developed a severe or serious adverse event
same,Safety and tolerability,"[2]; mild asthmatics, 4 mg QD",safe and well tolerated
same,rate of moderately severe adverse events,[2]; subjects receiving CSJ117 4 mg QD,21.6%
same,Accumulation ratio in humans,"[3]; cynomolgus monkey, in vivo",2.4 fold
same,Systemic accumulation ratio observed in monkeys,"[3]; cynomolgus monkey, in vivo",148 fold
same,Dose multiple: human equivalent dose of monkey NOAEL versus 4 mg QD,[3]; lung weight scaling,51.5 fold
same,"E, % [(B-A)/B]*100","[4]; CSJ117 4 mg OD, LAR max fall % FEV1",47.6%
same,"LAR B-A (placebo minus treatment), Max fall % FEV1","[4]; CSJ117 4 mg OD, PoC study",8.42
same,"LAR Treatment (A), Max fall % FEV1","[4]; CSJ117 4 mg OD, PoC study",9.28%
same,"LAR time adjusted AUC 3-7 h, Difference (CSJ117-Placebo) (Table 6)","[4]; Day 42, 4 mg QD",−2.64%
same,"LAR time adjusted AUC 3-7 h, Difference (CSJ117-Placebo) (Table 7)","[4]; Day 42, 4 mg QD",−2.90%
same,"LAR time adjusted AUC 3-7 h, Difference (CSJ117-Placebo) (Table 8)","[4]; Day 42, 4 mg QD",−1.02%
same,"LAR time adjusted AUC 3-7 h, Difference (CSJ117-Placebo) (Table 9)","[4]; Day 42, 4 mg QD",−4.70%
same,"LAR time adjusted AUC 3-7 h, model-based mean estimate (Table 6)",[4]; [9],13.11%
same,"LAR time adjusted AUC 3-7 h, model-based mean estimate (Table 7)",[4]; [9],6.46%
same,"LAR time adjusted AUC 3-7 h, model-based mean estimate (Table 8)",[4]; [9],15.11%
same,"LAR time adjusted AUC 3-7 h, model-based mean estimate (Table 9)",[4]; [9],27.85%
same,"LAR time adjusted AUC 3-7 h, Difference (CSJ117-Placebo) (Table 6)","[4]; Day 84, 4 mg QD",−8.42%
same,"LAR time adjusted AUC 3-7 h, Difference (CSJ117-Placebo) (Table 7)","[4]; Day 84, 4 mg QD",−7.18%
same,"LAR time adjusted AUC 3-7 h, Difference (CSJ117-Placebo) (Table 8)","[4]; Day 84, 4 mg QD",−4.26%
same,"LAR time adjusted AUC 3-7 h, Difference (CSJ117-Placebo) (Table 9)","[4]; Day 84, 4 mg QD",−5.41%
same,"LAR time adjusted AUC 3-7 h, model-based mean estimate (Table 6)",[4]; [10],9.28%
same,"LAR time adjusted AUC 3-7 h, model-based mean estimate (Table 7)",[4]; [10],4.20%
same,"LAR time adjusted AUC 3-7 h, model-based mean estimate (Table 8)",[4]; [10],12.83%
same,"LAR time adjusted AUC 3-7 h, model-based mean estimate (Table 9)",[4]; [10],25.48%
same,minimum absolute FEV1 between 3 and 7 hours compared with placebo,"[4]; Day 84, p-value of 0.050",statistically less
same,AUC of the time-adjusted fall in FEV1 during the late response,"[4]; day 84, 4 mg daily inhalation, vs placebo 11.38%, p=0.008",4.20%
same,maximum fall % FEV1 during the late response,"[4]; day 84, 4 mg daily inhalation, vs placebo 17.70%, P=0.029",9.28%
same,fractional exhaled nitric oxide (FeNO) compared with placebo,"[4]; over the 12-week treatment period, 4 mg QD",trend for a reduction
same,AUCinf in Japanese relative to non-Japanese subjects,[5],0.6-1.5 fold
same,Cmax in Japanese relative to non-Japanese subjects,[5],0.5-1.1 fold
same,Predicted efficacy,[6]; 0.5 mg once daily dose,10-35 % of maximum effect
same,Predicted efficacy,[6]; 8 mg once daily dose,65-88 % of maximum effect
same,ED50,[6]; Scenario 1: Emax 100%,4.4 mg
same,ED50,[6]; Scenario 2: Emax 80%,2.3 mg
same,ED50,[6]; Scenario 3: Emax 60%,1.0 mg
same,mean terminal elimination half-life (T1/2),"[7]; human, inhaled or intranasal",17.4 to 21.1 h
same,median time to achieve maximum CSJ117 serum concentration (Tmax),"[7]; human, inhaled or intranasal",6 to 21 h
same,AUClast,[7]; [11],109 ng·h/mL
same,Cmax,[7]; [11],5.90 ng/mL
same,T1/2,[7]; [11],18.5 h
same,Tmax,[7]; [11],21.0 h
same,AUClast,[7]; [12],127 ng·h/mL
same,Cmax,[7]; [12],5.65 ng/mL
same,T1/2,[7]; [12],18.7 h
same,Tmax,[7]; [12],12.0 h
same,AUCinf,[7]; [13],597 ng·h/mL
same,AUClast,[7]; [13],353 ng·h/mL
same,CL/F,[7]; [13],15.6 L/h
same,Cmax,[7]; [13],12.5 ng/mL
same,T1/2,[7]; [13],21.1 h
same,Tmax,[7]; [13],12.0 h
same,Vz/F,[7]; [13],481 L
same,AUCinf,[7]; [14],1710 ng·h/mL
same,AUClast,[7]; [14],1610 ng·h/mL
same,CL/F,[7]; [14],22.0 L/h
same,Cmax,[7]; [14],57.6 ng/mL
same,T1/2,[7]; [14],17.4 h
same,Tmax,[7]; [14],6.00 h
same,Vz/F,[7]; [14],555 L
same,AUCinf,[7]; [15],2650 ng·h/mL
same,AUClast,[7]; [15],2500 ng·h/mL
same,CL/F,[7]; [15],28.5 L/h
same,Cmax,[7]; [15],61.4 ng/mL
same,T1/2,[7]; [15],20.1 h
same,Tmax,[7]; [15],12.0 h
same,Vz/F,[7]; [15],815 L
same,AUCinf,[7]; [16],5750 ng·h/mL
same,AUClast,[7]; [16],5590 ng·h/mL
same,CL/F,[7]; [16],33.0 L/h
same,Cmax,[7]; [16],152 ng/mL
same,T1/2,[7]; [16],18.2 h
same,Tmax,[7]; [16],9.00 h
same,Vz/F,[7]; [16],915 L
same,CSJ117 serum exposure versus dose,[7],increased in a dose-dependent manner
same,mean T1/2,[8],18.6 to 22.4 h
